Consider one molecule from patent US20110123447A1 (UNIVERSITY OF ZURICH, published 2011).

Where “and” joins values, the source holds several entries; their conditions need not be identical. Equal values may be shown once.

In test [1] the target is T1, full length recombinant NY-ESO-1 protein (human, UniProt P78358 1-180).
T1 construct: mature; The form was set to 'mature' to stand for full length
Put plainly: ELISA on coated recombinant NY-ESO-1, supernatant of transfected 293 HEK cells. On the technique in general: In an ELISA, binding on a coated surface is turned into a signal by an enzyme label.

Test [2] addresses T2, NY-ESO-1 11-30 peptide (human).
T2 construct: also called peptide spanning amino acids 11 to 30 of NY-ESO-1
T2 peptide: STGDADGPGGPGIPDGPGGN
Put plainly: competition ELISA: soluble NY-ESO-1 11-30 peptide against plate bound peptide. The method, then:
The avidity of Manhattan was determined by competition ELISA using increasing concentrations of soluble NY-ESO-1₁₁₋₃₀ peptide to compete for the plate bound peptide. As depicted in FIG. 3C, the antigen-binding equilibrium dissociation constant (KD) of the interaction of Manhattan with its cognate peptide was in the lower nanomolar range.

The target of test [3] is T2, NY-ESO-1 11-30 peptide. Put plainly: saturation ELISA on coated NY-ESO-1 11-30 peptide.
In test [4] the target is T3, NY-ESO-1 peptide spanning amino acids 21-40 (human, UniProt P78358 21-40).
T3 construct: range 21-40; also called adjacent peptide 21-40
T3 peptide (looked up): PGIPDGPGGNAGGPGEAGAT
Put plainly: epitope mapping ELISA on coated overlapping peptides. As for the experimental part: (§1) 20mer peptides spanning the entire NY-ESO-1 protein with 10 aa overlaps shared by each adjacent peptides (Peptides&Elephants, Nuthetal, Germany) were used to coat Maxisorp ELISA plates (Nunc, Rochester, N.Y.). Human recombinant antibody Manhattan or patient serum (diluted 1:500 in PBS) was detected using horseradish peroxidase-conjugated Goat anti-human IgG+IgM (Jackson ImmunoResearch).
(§2) To identify the epitope recognized by Manhattan on NY-ESO-1 ELISA was performed using overlapping peptides spanning the complete NY-ESO-1 protein. […] This epitope, among others was also recognized by antibodies contained in serum of patient C1 (FIG. 3B).

Test [5] addresses T4, NY-ESO-1 peptide spanning amino acids 1-20 (human, UniProt P78358 1-20).
T4 construct: range 1-20; also called adjacent peptide 1-20
T4 peptide (looked up): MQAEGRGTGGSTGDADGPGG
The test is described as above. The method, then:
as §1, §2

Test [6] deals with T5, NY-ESO-1 as expressed in NY-ESO-1-positive mamma carcinoma tissue sections and in the cell line SK-MEL-37 (human, UniProt P78358 1-180).
T5 construct: whole, on cells; The antigen is intracellular; It was detected in fixed sections or permeabilised cells, not on the cell surface; also called NY-ESO-1-positive tissue; NY-ESO-1-positive cell line SK-MEL-37
Kind of test: immunohistochemistry on NY-ESO-1-positive tissue sections. As for the experimental part: Immunohistochemistry was performed on formalin-fixed, paraffin-embedded tissue. Heat-based antigen retrieval was applied to all slides. Non-specific fluorescence was blocked using polyclonal rabbit anti-human IgG (Dako, Baar, Switzerland) for 30 min at room temperature followed by a second block in 1% of low fat milk (Rapilait, Migros, Switzerland) for 10 min. Primary antibody or B cell conditioned medium was incubated overnight at 4° C. […] As positive control for the presence of NY-ESO-1 antigen a mouse anti-NY-ESO-1 monoclonal antibody (Zymed, South San Francisco, USA) was used.

B1: human monoclonal antibody Manhattan (recombinant human antibody 12D7 clone No. 4) (antibody, human IgG1, V domains shown)
VH: QVQLVQSGGGVVRPGGSLRLSCAASGFSFIDYGMSWVRQVPGKGLEWVAGMNWSGDKKGHAESVKGRFIISRDNAKNTLYLEMSSLRVEDTALYFCARGEYSNRFDPRGRGTLVTVSS
VL: DIVMTQTPLSLPVTLGQPASLSCRSSQSLVFTDGNTYLNWFQQRPGQSPRRLIYKVSSRDPGVPDRFSGTGSGTDFTLEISRVEAEDIGVYYCMQGTHWPPIFGQGTKVEIK
notes: They were cloned into vectors with the constant regions of human IgG1 heavy chain and human kappa light chain and expressed in 293 HEK cells; also called 12D7 clone number 4; 12D7.4
Take B1: the binding result in test [1] is listed as “binds”; in test [4] it was “no binding”; in test [5], “no binding”; in test [6], “binds”. Further, in test [2], the affinity, expressed as Kd, was 0.1 nM. Further, in test [3], the EC50 was 1 nM and 0.15 µg/mL.

A word on the Kd: it is the free concentration of one partner at which half of the binding sites on the other are occupied at equilibrium, for simple one-to-one binding. Broadly, the EC50 is the concentration that produces a half-maximal response.
